The target of this experiment is T1, Integrator subunit INTS11(E203Q) (human, UniProt Q5TA45 1-600, E203Q).
T1 construct: INTS11, human; endonuclease subunit of the Integrator cleavage module; E203Q mutant with reduced catalytic activity used in all complexes for cryo-EM and XL-MS; Stood in the assays as a subunit of the Integrator–PP2A complex; also called INTS11(E203Q) mutant
In words: cross-linking; XL-MS of the PEC–Integrator–PP2A–SOSS complex (mixed population of pre- and post-termination complexes): pooled glycerol-gradient peak fractions, 3 mM BS3, 30 min, 30 °C. The settings on record: both partners purified.

Here are results for one molecule from article PMC11062913, “Structural basis of Integrator-dependent RNA polymerase II termination” (Nature, 2024).

B1: NABP2 (natural protein, human, UniProt Q9BQ15-1 1-211, looked up)
chain: MTTETFVKDIKPGLKNLNLIFIVLETGRVTKTKDGHEVRTCKVADKTGSINISVWDDVGNLIQPGDIIRLTKGYASVFKGCLTLYTGRGGDLQKIGEFCMVYSEVPNFSEPNPEYSTQQAPNKAVQNDSNPSASQPTTGPSAASPASENQNGNGLSAPPGPGGGPHPPHTPSHPPSTRITRSQPNHTPAGPPGPSSNPVSNGKETRRSSKR
notes: Treated with lambda protein phosphatase during purification; also called SOSS factor NABP2
B1: the binding result is given as “binds”.
